Publication PMC4045939 (2014)

T1: RSV M2 protein peptide on H-2Kd (mouse)
T1 peptide: SYIGSINNI

B1: TRBV13-1 (TCR)
alpha TRAV12-2*01 CDR3: CALRNNNNAPRF
beta TRBV13-1*02 CDR3: CASSDGGKEVFF
B2: TRBV13-2 (TCR)
alpha TRAV7-3*01 CDR3: CAVNSGYNKLTF
beta TRBV13-2*01 CDR3: CASGAGTGYAEQFF

Target: T1, RSV M2 protein peptide on H-2Kd
Assay: in vitro CTL assay; CB6F1 splenocyte targets loaded with graded M2 peptide, E:T ratio of 50; EC50 from a 4-parameter non-linear fit; full-length, on cells

Binder	EC50 of peptide [nM]
B1	0.0571
B2	0.243
